Test system: GST-VP1 (Chicken anaemia virus (strain CAU269/7?))
Assay: EMSA (agarose)
Details: 50 mM Tris-HCl pH 7.5, 120 mM KCl, 1.0 mM EDTA, 0.5 mM DTT, 30 mg/ml BSA (so in the source); 100 ng DNA in 20 ul, 37 C, 30 min (Results: 1 h); 0.8% agarose/TAE. Text …

Row | Substance | percent unbound DNA (% unbound DNA)
1 | CAV genome minus-strand linear ssDNA | 53.3
2 | M13mp18 ssDNA | 46.5
3 | linear pcDNA3.1 (EcoRI) | 84.7
4 | pCAV, open circular (form I) | 59.6
5 | pCAV, supercoiled (form II) | 82.6

From article PMC5936033
